B1: Caspase Dronc (Drosophila melanogaster (Fruit fly)), Q9XYF4 (parent)
chain: MQPPELEIGMPKRHREHIRKNLNILVEWTNYERLAMECVQQGILTVQMLRNTQDLNGKPFNMDEKDVRVEQHRRLLLKITQRGPTAYNLLINALRNINCLDAAVLLESVDESDSRPPFISLNERRTSRKSADIVDTPSPEASEGPCVSKLRNEPLGALTPYVGVVDGPEVKKSKKIHGGDSAILGTYKMQSRFNRGVLLMVNIMDYPDQNRRRIGAEKDSKSLIHLFQELNFTIFPYGNVNQDQFFKLLTMVTSSSYVQNTECFVMVLMTHGNSVEGKEKVEFCDGSVVDMQKIKDHFQTAKCPYLVNKPKVLMFPFCRGDEYDLGHPKNQGNLMEPVYTAQEEKWPDTQTEGIPSPSTNVPSLADTLVCYANTPGYVTHRDLDTGSWYIQKFCQVMADHAHDTDLEDILKKTSEAVGNKRTKKGSMQTGAYDNLGFNKKLYFNPGFFNE
partner: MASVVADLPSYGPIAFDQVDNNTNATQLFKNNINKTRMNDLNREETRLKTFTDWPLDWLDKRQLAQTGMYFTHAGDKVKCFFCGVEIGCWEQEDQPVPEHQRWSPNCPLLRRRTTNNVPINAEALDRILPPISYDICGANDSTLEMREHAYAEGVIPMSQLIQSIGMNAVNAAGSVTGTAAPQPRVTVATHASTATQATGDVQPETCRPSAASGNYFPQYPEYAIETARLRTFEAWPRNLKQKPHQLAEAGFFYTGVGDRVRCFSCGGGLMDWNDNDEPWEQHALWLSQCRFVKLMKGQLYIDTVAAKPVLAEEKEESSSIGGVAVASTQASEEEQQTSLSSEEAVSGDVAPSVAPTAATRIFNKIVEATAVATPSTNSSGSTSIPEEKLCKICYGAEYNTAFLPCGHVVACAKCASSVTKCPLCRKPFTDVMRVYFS

Variants of: B1
Settings: with diap1_drome Diap1, Q24306

Row | effect of a mutation on the interaction | Variant
1 | decreasing interaction | MQPPELEIGMPKRHREHIRKNLNILVEWTNYERLAMECVQQGILTVQMLRNTQDLNGKPFNMDEKDVRVEQHRRLLLKITQRGPTAYNLLINALRNINCLDAAVLLESVDESDSRPPEISLNERRTSRKSADIVDTPSPEASEGPCVSKLRNEPLGALTPYVGVVDGPEVKKSKKIHGGDSAILGTYKMQSRFNRGVLLMVNIMDYPDQNRRRIGAEKDSKSLIHLFQELNFTIFPYGNVNQDQFFKLLTMVTSSSYVQNTECFVMVLMTHGNSVEGKEKVEFCDGSVVDMQKIKDHFQTAKCPYLVNKPKVLMFPFCRGDEYDLGHPKNQGNLMEPVYTAQEEKWPDTQTEGIPSPSTNVPSLADTLVCYANTPGYVTHRDLDTGSWYIQKFCQVMADHAHDTDLEDILKKTSEAVGNKRTKKGSMQTGAYDNLGFNKKLYFNPGFFNE [F118E]
